Assay results: US20130143299A1 (GENEFRONTIER, published 2013)

Assays:
[1] = biological target: T1, Escherichia coli thioredoxin, purchased from Sigma (Escherichia coli, UniProt P0AA25 2-109 = thioredoxin); test: ELISA, purified clone 500 ng/well on immobilised antigen, anti-FLAG-HRP detection
T1 construct: Immobilised on the plate for ELISA; also called Trx

[2] = biological target: T2, human Erk2 (extracellular signal-regulated kinase 2), purchased from Sigma (human, UniProt P28482 1-360, limits assumed); test: as above
T2 construct: Biotinylated with EZ-Link NHS-PEO4-Biotin for selection and for SPR (SA sensor chip); immobilised directly on the plate for ELISA; also called recombinant Erk2 protein; Erk2 protein

[3] = biological target: T2, human Erk2 (extracellular …); test: primary screening ELISA, E. coli extract on immobilised antigen, anti-FLAG-HRP
[4] = biological target: T2, human Erk2 (extracellular …); test: Immunoprecipitation on anti-FLAG M2 agarose of recombinant Erk2 added to HEK293T cell lysate; SDS-PAGE (CBB staining) and Western blot with anti-ERK antibody
[5] = biological target: T3, endogenous Erk2 of HEK293T cells (UniProt P28482 2-360); test: His-tag (TALON resin) pull-down from transfected HEK293T cells, Western blot with anti-ERK antibody
T3 construct: Endogenous intracellular protein, not a recombinant construct; also called Erk1/2

[6] = biological target: T4, endogenous Erk1 of HEK293T cells (UniProt P27361 2-379); test: as above
T4 construct: Endogenous intracellular protein, not a recombinant construct; also called Erk1/2

[7] = biological target: T2, human Erk2 (extracellular …); test: SPR (BIACORE 3000), biotinylated Erk2 on SA sensor chip

T2 sequence (P28482 whole entry): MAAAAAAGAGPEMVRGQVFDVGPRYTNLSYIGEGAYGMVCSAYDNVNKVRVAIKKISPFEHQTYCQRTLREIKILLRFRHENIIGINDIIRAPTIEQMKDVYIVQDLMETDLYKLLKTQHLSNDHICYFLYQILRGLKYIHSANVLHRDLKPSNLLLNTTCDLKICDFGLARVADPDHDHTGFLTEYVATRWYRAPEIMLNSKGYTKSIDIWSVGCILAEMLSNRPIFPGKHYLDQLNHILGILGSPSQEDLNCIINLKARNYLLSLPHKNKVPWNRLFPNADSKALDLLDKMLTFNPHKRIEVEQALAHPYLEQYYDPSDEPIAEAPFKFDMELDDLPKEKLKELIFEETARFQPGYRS
T1 sequence (P0AA25 2-109 limits assumed): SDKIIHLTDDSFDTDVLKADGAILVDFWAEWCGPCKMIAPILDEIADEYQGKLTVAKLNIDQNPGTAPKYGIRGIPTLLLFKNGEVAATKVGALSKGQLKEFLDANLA
T4 sequence (P27361 2-379 limits assumed): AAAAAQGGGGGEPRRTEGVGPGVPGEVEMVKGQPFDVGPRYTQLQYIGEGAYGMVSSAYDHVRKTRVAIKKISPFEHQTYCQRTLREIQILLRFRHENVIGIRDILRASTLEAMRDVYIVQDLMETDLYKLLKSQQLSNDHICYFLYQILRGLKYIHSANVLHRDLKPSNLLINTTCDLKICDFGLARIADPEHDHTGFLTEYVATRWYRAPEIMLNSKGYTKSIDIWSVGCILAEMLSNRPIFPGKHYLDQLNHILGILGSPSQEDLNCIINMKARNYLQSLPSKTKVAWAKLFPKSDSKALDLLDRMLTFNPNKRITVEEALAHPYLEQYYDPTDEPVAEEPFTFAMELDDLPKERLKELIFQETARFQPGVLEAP
T3 sequence (P28482 2-360 limits assumed): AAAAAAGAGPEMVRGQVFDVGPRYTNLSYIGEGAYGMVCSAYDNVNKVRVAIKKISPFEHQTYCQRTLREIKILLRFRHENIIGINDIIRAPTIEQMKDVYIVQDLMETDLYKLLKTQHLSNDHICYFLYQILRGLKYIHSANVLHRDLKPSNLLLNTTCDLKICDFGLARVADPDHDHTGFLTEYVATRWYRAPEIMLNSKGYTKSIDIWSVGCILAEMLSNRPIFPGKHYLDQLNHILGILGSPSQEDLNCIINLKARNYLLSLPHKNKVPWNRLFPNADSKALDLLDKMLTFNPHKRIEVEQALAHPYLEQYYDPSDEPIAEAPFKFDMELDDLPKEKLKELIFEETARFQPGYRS

B1: Trx-binding clone group H (RNF8-FHA domain-modified protein) (designed binder)
chain: GEPGFFVTGDRAGGRSWCLRRVGMSAGWLLLEDGCEVTVGSDWGVTYQLVSKRWLGNVVFNHCVLKQNPEGQWTIMDNKAGHGVWLNRARLEPLRVYSIHQGDYIQLGEPSSLHENAEYEYEVTEEDWETIYPCLSPKNDQMIEKN
notes: not shown: N-terminal fusion partner from vector pET-MalStrep (MBP/Strep) and FLAG tag
- ELISA (S/N) [1]: 5.7 S/N

B2: Erk2-binding clone group B (RNF8-FHA domain-modified protein) (designed binder)
chain: GEPGFFVTGDRAGGRSWCLRRVGMSAGWLLLEDGCEVTVGFGTGVTYQLVSKYLPSWFTYNHCVLKQNPEGQWTIMDNKSLTGVWLNRARLEPLRVYSIHQGDYIQLGALKQSLENAEYEYEVTEEDWETIYPCLSPKNDQMIEKN
notes: Loop 4 ALKQSL; loops 1-3 as group A; also called Erk2 clone B; not shown: N-terminal fusion partner from vector pET-MalStrep (MBP/Strep) and FLAG tag
- ELISA (S/N) [2]: 30 S/N

B3: Erk2-binding clone group K (RNF8-FHA domain-modified protein) (designed binder)
chain: GEPGFFVTGDRAGGRSWCLRRVGMSAGWLLLEDGCEVTVGFGTGVTYQLVSKYLPSWFTYNHCVLKQNPEGQWTIMDNKSLTGVWLNRARLEPLRVYSIHQGDYIQLGEDRFGLENAEYEYEVTEEDWETIYPCLSPKNDQMIEKN
notes: Only tested in the primary screening ELISA (E. coli extract); not shown: N-terminal fusion partner from vector pET-MalStrep (MBP/Strep) and FLAG tag
- binding result [3]: binds

B4: Erk2-binding clone group L (RNF8-FHA domain-modified protein) (designed binder)
chain: GEPGFFVTGDRAGGRSWCLRRVGMSAGWLLLEDGCEVTVGFGTGVTYQLVSKYLPSWFTYNHCVLKQNPEGQWTIMDNKSLTGVWLNRARLEPLRVYSIHQGDYIQLGAMFSDVENAEYEYEVTEEDWETIYPCLSPKNDQMIEKN
notes: as for B3
- binding result [3]: binds

B5: Erk2-binding clone group G (RNF8-FHA domain-modified protein) (designed binder)
chain: GEPGFFVTGDRAGGRSWCLRRVGMSAGWLLLEDGCEVTVGFGTGVTYQLVSKYLPSWFTYNHCVLKQNPEGQWTIMDNKSLTGVWLNRARLEPLRVYSIHQGDYIQLGSLPGLAENAEYEYEVTEEDWETIYPCLSPKNDQMIEKN
notes: as for B3
- binding result [3]: binds

B6: Erk2-binding clone group E (RNF8-FHA domain-modified protein) (designed binder)
chain: GEPGFFVTGDRAGGRSWCLRRVGMSAGWLLLEDGCEVTVGFGTGVTYQLVSKYLPSWFTYNHCVLKQNPEGQWTIMDNKSLTGVWLNRARLEPLRVYSIHQGDYIQLGETGLEWENAEYEYEVTEEDWETIYPCLSPKNDQMIEKN
notes: as for B3
- binding result [3]: binds

B7: Erk2-binding clone group A (RNF8-FHA domain-modified protein) (designed binder)
chain: GEPGFFVTGDRAGGRSWCLRRVGMSAGWLLLEDGCEVTVGFGTGVTYQLVSKYLPSWFTYNHCVLKQNPEGQWTIMDNKSLTGVWLNRARLEPLRVYSIHQGDYIQLGGIWSDLENAEYEYEVTEEDWETIYPCLSPKNDQMIEKN
notes: Expressed from pET-MalStrep in E. coli; also called Erk2 clone A; not shown: N-terminal fusion partner from E. coli vector pET-MalStrep (MBP, purified on MBPTrap)
- ELISA (S/N) [2]: 30 S/N

B8: Erk2-binding clone group M (RNF8-FHA domain-modified protein) (designed binder)
chain: GEPGFFVTGDRAGGRSWCLRRVGMSAGWLLLEDGCEVTVGFGTGVTYQLVSKYLPSWFTYNHCVLKQNPEGQWTIMDNKSLTGVWLNRARLEPLRVYSIHQGDYIQLGALRCRLENAEYEYEVTEEDWETIYPCLSPKNDQMIEKN
notes: as for B3
- binding result [3]: binds

B9: Erk2-binding clone group H (RNF8-FHA domain-modified protein) (designed binder)
chain: GEPGFFVTGDRAGGRSWCLRRVGMSAGWLLLEDGCEVTVGFGTGVTYQLVSKYLPSWFTYNHCVLKQNPEGQWTIMDNKSLTGVWLNRARLEPLRVYSIHQGDYIQLGLVAYGAENAEYEYEVTEEDWETIYPCLSPKNDQMIEKN
notes: as for B3
- binding result [3]: binds

B10: Erk2-binding clone group C (RNF8-FHA domain-modified protein) (designed binder)
chain: GEPGFFVTGDRAGGRSWCLRRVGMSAGWLLLEDGCEVTVGFGTGVTYQLVSKYLPSWFTYNHCVLKQNPEGQWTIMDNKSLTGVWLNRARLEPLRVYSIHQGDYIQLGAMTTSYENAEYEYEVTEEDWETIYPCLSPKNDQMIEKN
notes: Loop 4 AMTTSY; loops 1-3 as group A; also called Erk2 clone C; not shown: N-terminal fusion partner from vector pET-MalStrep (MBP/Strep) and FLAG tag
- ELISA (S/N) [2]: 12 S/N

B11: Erk2-binding clone group I (RNF8-FHA domain-modified protein) (designed binder)
chain: GEPGFFVTGDRAGGRSWCLRRVGMSAGWLLLEDGCEVTVGFGTGVTYQLVSKYLPSWFTYNHCVLKQNPEGQWTIMDNKSLTGVWLNRARLEPLRVYSIHQGDYIQLGSLAANLENAEYEYEVTEEDWETIYPCLSPKNDQMIEKN
notes: as for B3
- binding result [3]: binds

B12: Erk2-binding clone group D (RNF8-FHA domain-modified protein) (designed binder)
chain: GEPGFFVTGDRAGGRSWCLRRVGMSAGWLLLEDGCEVTVGFGTGVTYQLVSKYLPSWFTYNHCVLKQNPEGQWTIMDNKSLTGVWLNRARLEPLRVYSIHQGDYIQLGSHKWWVENAEYEYEVTEEDWETIYPCLSPKNDQMIEKN
notes: Loop 4 SHKWWV; loops 1-3 as group A; also called Erk2 clone D; not shown: N-terminal fusion partner from vector pET-MalStrep (MBP/Strep) and FLAG tag
- ELISA (S/N) [2]: 13.6 S/N

B13: Erk2-binding clone group F (RNF8-FHA domain-modified protein) (designed binder)
chain: GEPGFFVTGDRAGGRSWCLRRVGMSAGWLLLEDGCEVTVGFGTGVTYQLVSKYLPSWFTYNHCVLKQNPEGQWTIMDNKSLTGVWLNRARLEPLRVYSIHQGDYIQLGSMRHMLENAEYEYEVTEEDWETIYPCLSPKNDQMIEKN
notes: as for B3
- binding result [3]: binds

B14: Trx-binding clone group A (RNF8-FHA domain-modified protein) (designed binder)
chain: GEPGFFVTGDRAGGRSWCLRRVGMSAGWLLLEDGCEVTVGFVPGVTYQLVSKVLFAEKNANHCVLKQNPEGQWTIMDNKVWNGVWLNRARLEPLRVYSIHQGDYIQLGQVSPLGENAEYEYEVTEEDWETIYPCLSPKNDQMIEKN
notes: also called Trx clone A; not shown: N-terminal fusion partner from vector pET-MalStrep (MBP/Strep) and FLAG tag
- ELISA (S/N) [1]: 30.5 S/N
- binding result [4]: no binding

B15: Trx clone A expressed from pcDNA3.1-RNF8-V5/His in HEK293T cells (designed binder)
chain: GEPGFFVTGDRAGGRSWCLRRVGMSAGWLLLEDGCEVTVGFVPGVTYQLVSKVLFAEKNANHCVLKQNPEGQWTIMDNKVWNGVWLNRARLEPLRVYSIHQGDYIQLGQVSPLGENAEYEYEVTEEDWETIYPCLSPKNDQMIEKN
notes: Control clone in the pull-down of endogenous Erk1/2; not shown: C-terminal V5 and His tags of vector pcDNA3.1-V5/His
- binding result [5]: no binding
- binding result [6]: no binding

B16: Trx-binding clone group C (RNF8-FHA domain-modified protein) (designed binder)
chain: GEPGFFVTGDRAGGRSWCLRRVGMSAGWLLLEDGCEVTVGFVPGVTYQLVSKVLFAEKNANHCVLKQNPEGQWTIMDNKVWNGVWLNRARLEPLRVYSIHQGDYIQLGGVFRKGENAEYEYEVTEEDWETIYPCLSPKNDQMIEKN
notes: Loop 4 GVFRKG; loops 1-3 as Trx group A; not shown: N-terminal fusion partner from vector pET-MalStrep (MBP/Strep) and FLAG tag
- ELISA (S/N) [1]: 4.4 S/N

B17: Trx-binding clone group G (RNF8-FHA domain-modified protein) (designed binder)
chain: GEPGFFVTGDRAGGRSWCLRRVGMSAGWLLLEDGCEVTVGFLPGVTYQLVSKPMRREKNMNHCVLKQNPEGQWTIMDNKVRIGVWLNRARLEPLRVYSIHQGDYIQLGQVSPLGENAEYEYEVTEEDWETIYPCLSPKNDQMIEKN
notes: as for B1
- ELISA (S/N) [1]: 22.2 S/N

B18: Trx-binding clone group D (RNF8-FHA domain-modified protein) (designed binder)
chain: GEPGFFVTGDRAGGRSWCLRRVGMSAGWLLLEDGCEVTVGFVPGVTYQLVSKVLFAEKNANHCVLKQNPEGQWTIMDNKVWNGVWLNRARLEPLRVYSIHQGDYIQLGRGCLGLENAEYEYEVTEEDWETIYPCLSPKNDQMIEKN
notes: Loop 4 RGCLGL; loops 1-3 as Trx group A; not shown: N-terminal fusion partner from vector pET-MalStrep (MBP/Strep) and FLAG tag
- ELISA (S/N) [1]: 4.7 S/N

B19: Erk2-binding clone group N (RNF8-FHA domain-modified protein) (designed binder)
chain: GEPGFFVTGDRAGGRSWCLRRVGMSAGWLLLEDGCEVTVGWGGGVTYQLVSKGYLWQRRTNHCVLKQNPEGQWTIMDNKVLGGVWLNRARLEPLRVYSIHQGDYIQLGLRSLLLENAEYEYEVTEEDWETIYPCLSPKNDQMIEKN
notes: Purified protein from E. coli; also called Erk2 clone N; clone N; not shown: N-terminal fusion partner from vector pET-MalStrep (MBP/Strep) and FLAG tag
- ELISA (S/N) [2]: 12.6 S/N
- Kd [7]: 30 nM
